Experimental data: article PMC4506780

Substrate: c1ccc2c3c([nH]c2c1)CNCC3
Assay: steady-state kinetics of chlorination
Assay type: biochemical, Lentzea aerocolonigenes
Details: cofactor regeneration as in Scheme 2

B1: RebH (Lentzea aerocolonigenes; K145M/M71V/S2P) (protein)
chain: MPGKIDKILIVGGGTAGWMAASYLGKALQGTADITLLQAPDIPTLGVGEATIPNLQTAFFDFLGIPEDEWVRECNASYKVAIKFINWRTAGEGTSEARELDGGPDHFYHSFGLLKYHEQIPLSHYWFDRSYRGKTVEPFDYACYMEPVILDANRSPRRLDGSKVTNYAWHFDAHLVADFLRRFATEKLGVRHVEDRVEHVQRDANGNIESVRTATGRVFDADLFVDCSGFRGLLINKAMEEPFLDMSDHLLNDSAVATQVPHDDDANGVEPFTSAIAMKSGWTWKIPMLGRFGTGYVYSSRFATEDEAVREFCEMWHLDPETQPLNRIRFRVGRNRRAWVGNCVSIGTSSCFVEPLESTGIYFVYAALYQLVKHFPDKSLNPVLTARFNREIETMFDDTRDFIQAHFYFSPRTDTPFWRANKELRLADGMQEKIDMYRAGMAINAPASDDAQLYYGNFEEEFRNFWNNSNYYCVLAGLGLVPDAPSPRLAHMPQATESVDEVFGAVKDRQRNLLETLPSLHEFLRQQHGR
Question: B1 was tested. Which Km (variant 1-PVM, 5 mol% enzyme) did it give?
Answer: Its Km is 215 µM.

Question: And the kcat (variant 1-PVM, 5 mol% enzyme)?
Answer: The kcat was 0.000667 s⁻¹.

Question: And the kcat/Km (variant 1-PVM, 5 mol% enzyme)?
Answer: Its kcat/Km is 3.1 M⁻¹ s⁻¹.

B2: RebH (Lentzea aerocolonigenes; K145M/M71V/N467T/S2P) (protein)
chain: MPGKIDKILIVGGGTAGWMAASYLGKALQGTADITLLQAPDIPTLGVGEATIPNLQTAFFDFLGIPEDEWVRECNASYKVAIKFINWRTAGEGTSEARELDGGPDHFYHSFGLLKYHEQIPLSHYWFDRSYRGKTVEPFDYACYMEPVILDANRSPRRLDGSKVTNYAWHFDAHLVADFLRRFATEKLGVRHVEDRVEHVQRDANGNIESVRTATGRVFDADLFVDCSGFRGLLINKAMEEPFLDMSDHLLNDSAVATQVPHDDDANGVEPFTSAIAMKSGWTWKIPMLGRFGTGYVYSSRFATEDEAVREFCEMWHLDPETQPLNRIRFRVGRNRRAWVGNCVSIGTSSCFVEPLESTGIYFVYAALYQLVKHFPDKSLNPVLTARFNREIETMFDDTRDFIQAHFYFSPRTDTPFWRANKELRLADGMQEKIDMYRAGMAINAPASDDAQLYYGNFEEEFRNFWTNSNYYCVLAGLGLVPDAPSPRLAHMPQATESVDEVFGAVKDRQRNLLETLPSLHEFLRQQHGR
Question: Which Km (variant 2-T, 3 mol% enzyme) does the source give for B2 here?
Answer: The Km was 236 µM.

Question: What about the kcat (variant 2-T, 3 mol% enzyme) of the same protein?
Answer: The kcat was 0.000933 s⁻¹.

Question: What about the kcat/Km (variant 2-T, 3 mol% enzyme) of the same protein?
Answer: The kcat/Km was 3.95 M⁻¹ s⁻¹.
